The record followed here is US20220251236A1 (Boehringer Ingelheim, published 2022).

One experiment has as its target T1, Human CD3 E+G HuFc-6xHis (human).
T1 construct: also called hu CD3εγ-Fc
Briefly: SPR (ProteOn XPR36), HuCD3E_HuCD3G-Fc amine-coupled, bispecific as analyte, Example 4B. The essentials:
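SPR kinetics with the bispecific constructs flowed as analyte over a directly amine-coupled (pH 4.5 acetate) human CD3εγ-Fc surface. Association runs 600 s and dissociation 1800 s, at 30 μl/min in PBS-T-EDTA.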

Experiment [1] addresses T2, EGF6+MEMBRANE PROXIMAL PEPTIDE.
T2 construct: also called Hu DLL3 EGF6+membrane proximal peptide on HEK293 cells
T2 membrane-anchored DLL3 subdomain construct: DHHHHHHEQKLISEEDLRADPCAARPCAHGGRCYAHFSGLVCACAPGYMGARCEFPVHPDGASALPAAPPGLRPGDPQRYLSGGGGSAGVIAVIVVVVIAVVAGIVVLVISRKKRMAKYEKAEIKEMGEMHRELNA
The experiment can be described thus: flow cytometry on HEK293 cells expressing the DLL3 subdomain construct, PE anti-human secondary, control: secondary antibody only. Put shortly: (§1)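 Binders tested on HEK293 cells displaying the DLL3 subdomain construct; bound molecules detected by flow cytometry using PE-conjugated anti-human secondary antibody. Negative control: cells with secondary antibody only.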
On the technique in general: A flow cytometer gives signals particle by particle.

In the next experiment the target is T3, EGF5+6.
T3 construct: also called Hu DLL3 EGF5+6 on HEK293 cells
T3 membrane-anchored DLL3 subdomain construct: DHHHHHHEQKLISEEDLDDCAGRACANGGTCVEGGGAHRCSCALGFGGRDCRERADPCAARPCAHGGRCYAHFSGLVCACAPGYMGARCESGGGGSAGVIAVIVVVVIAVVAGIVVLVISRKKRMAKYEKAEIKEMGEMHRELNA
The description is as above. Put shortly:
as §1

The next experiment concerns the target T4, EGF2+3.
T4 construct: also called Hu DLL3 EGF2+3 on HEK293 cells
T4 membrane-anchored DLL3 subdomain construct: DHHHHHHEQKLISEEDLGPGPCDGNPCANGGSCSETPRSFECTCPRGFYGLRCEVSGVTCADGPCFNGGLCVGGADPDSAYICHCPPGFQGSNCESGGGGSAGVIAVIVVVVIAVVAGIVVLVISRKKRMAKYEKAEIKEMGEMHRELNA
The description is as above. The essentials:
as §1

In the next experiment the target is T5, EGF3+4.
T5 construct: also called Hu DLL3 EGF3+4 on HEK293 cells
T5 membrane-anchored DLL3 subdomain construct: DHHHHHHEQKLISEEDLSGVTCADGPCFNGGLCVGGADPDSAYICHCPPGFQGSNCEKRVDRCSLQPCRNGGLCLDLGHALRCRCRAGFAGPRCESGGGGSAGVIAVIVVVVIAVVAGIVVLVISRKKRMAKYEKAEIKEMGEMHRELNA
Described as above. Put shortly:
as §1

Another experiment concerns the target T6, EGF4+5.
T6 construct: also called Hu DLL3 EGF4+5 on HEK293 cells
T6 membrane-anchored DLL3 subdomain construct: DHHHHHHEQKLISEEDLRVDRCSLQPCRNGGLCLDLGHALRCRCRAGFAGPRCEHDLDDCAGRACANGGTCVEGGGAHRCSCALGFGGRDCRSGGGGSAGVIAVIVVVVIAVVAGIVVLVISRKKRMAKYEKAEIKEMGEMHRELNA
The experiment is described as above. The essentials:
as §1

In the next experiment the target is T7, EGF1+2.
T7 construct: also called Hu DLL3 EGF1+2 on HEK293 cells
T7 membrane-anchored DLL3 subdomain construct: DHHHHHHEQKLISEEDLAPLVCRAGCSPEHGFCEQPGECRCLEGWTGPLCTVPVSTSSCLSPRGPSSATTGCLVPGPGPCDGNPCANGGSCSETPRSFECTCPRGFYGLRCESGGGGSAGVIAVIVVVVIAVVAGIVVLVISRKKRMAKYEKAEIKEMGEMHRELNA
The description is as above. The essentials: as §1

T1 sequence (chain, as listed by the source limits assumed): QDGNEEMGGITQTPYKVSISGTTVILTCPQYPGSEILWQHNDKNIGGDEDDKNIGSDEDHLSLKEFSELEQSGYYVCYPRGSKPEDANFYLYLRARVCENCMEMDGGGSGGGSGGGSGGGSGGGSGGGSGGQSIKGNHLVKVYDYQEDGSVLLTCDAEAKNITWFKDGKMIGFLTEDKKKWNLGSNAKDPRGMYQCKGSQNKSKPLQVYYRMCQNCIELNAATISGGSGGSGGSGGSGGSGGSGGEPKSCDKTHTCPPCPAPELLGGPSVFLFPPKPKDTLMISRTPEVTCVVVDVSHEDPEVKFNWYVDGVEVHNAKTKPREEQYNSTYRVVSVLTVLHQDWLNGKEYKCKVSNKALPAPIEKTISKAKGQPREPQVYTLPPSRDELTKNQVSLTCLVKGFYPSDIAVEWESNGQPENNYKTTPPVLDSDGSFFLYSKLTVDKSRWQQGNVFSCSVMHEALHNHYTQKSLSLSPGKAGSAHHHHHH

B1: DLL3#5/CD3#1 (bispecific antibody, human IgG1, kappa, lambda, L234A L235A)
chain 1: not shown
chain 2: EAVVTQEPSLTVSPGGTVTLTCRSSTGAVTTSNYANWVQEKPGQLPRGLIGGTNKRAPWVPARFSGSLLGGKAALTLSGAQPEDEAEYFCALWYSNLWVFGGGTKLTVLGQPKAAPSVTLFPPSSEELQANKATLVCLISDFYPGAVKVAWKADGSPVNTGVETTTPSKQSNNKYAASSYLSLTPEQWKSHRSYSCQVTHEGSTVEKTVAPAECSGGGGSEGKSSGSGSESKSTEGKSSGSGSESKSTGGGGSEVQLVESGGGLVQPGGSLKLSCAASGFTFNTYAMNWVRQAPGKGLEWVARIRSKYNNYATYYADSVKDRFTISRDDSKNTAYLQMNNLKTEDTAVYYCVRHGNFGNSYVSWFAYWGQGTLVTVSAASTKGPSVFPLAPSSKSTSGGTAALGCLVKDYFPEPVTVSWNSGALTSGVHTFPAVLQSSGLYSLSSVVTVPSSSLGTQTYICNVNHKPSNTKVDKRVEPKSCDKTHTCPPCPAPEAAGGPSVFLFPPKPKDTLMISRTPEVTCVVVDVSHEDPEVKFNWYVDGVEVHNAKTKPREEQYNSTYRVVSVLTVLHQDWLNGKEYKCKVSNKALPAPIEKTISKAKGQPREPQVYTLPPSREEMTKNQVSLSCAVKGFYPSDIAVEWESNGQPENNYKTTPPVLDSDGSFFLVSKLTVDKSRWQQGNVFSCSVMHEALHNRFTQKSLSLSPG
notes: Heterodimer of one DLL3 chain and one CD3 chain (scFab-Fc, knob-in-hole)
In general, Kd refers to the concentration at which binding is half-saturated. In the case of B1, the Kd with Human CD3 E+G HuFc-6xHis turned out to be 3 nM. Besides, the binding result (in experiment [1]; with EGF5+6; in the experiment with EGF2+3; in the experiment with EGF3+4; with EGF4+5) was “no binding (tested: 1.6 nM)” each time.

B2: DLL3#4/CD3#1 (bispecific antibody, human IgG1, kappa, lambda, L234A L235A)
chain 1: not shown
chain 2: EAVVTQEPSLTVSPGGTVTLTCRSSTGAVTTSNYANWVQEKPGQLPRGLIGGTNKRAPWVPARFSGSLLGGKAALTLSGAQPEDEAEYFCALWYSNLWVFGGGTKLTVLGQPKAAPSVTLFPPSSEELQANKATLVCLISDFYPGAVKVAWKADGSPVNTGVETTTPSKQSNNKYAASSYLSLTPEQWKSHRSYSCQVTHEGSTVEKTVAPAECSGGGGSEGKSSGSGSESKSTEGKSSGSGSESKSTGGGGSEVQLVESGGGLVQPGGSLKLSCAASGFTFNTYAMNWVRQAPGKGLEWVARIRSKYNNYATYYADSVKDRFTISRDDSKNTAYLQMNNLKTEDTAVYYCVRHGNFGNSYVSWFAYWGQGTLVTVSAASTKGPSVFPLAPSSKSTSGGTAALGCLVKDYFPEPVTVSWNSGALTSGVHTFPAVLQSSGLYSLSSVVTVPSSSLGTQTYICNVNHKPSNTKVDKRVEPKSCDKTHTCPPCPAPEAAGGPSVFLFPPKPKDTLMISRTPEVTCVVVDVSHEDPEVKFNWYVDGVEVHNAKTKPREEQYNSTYRVVSVLTVLHQDWLNGKEYKCKVSNKALPAPIEKTISKAKGQPREPQVYTLPPSREEMTKNQVSLSCAVKGFYPSDIAVEWESNGQPENNYKTTPPVLDSDGSFFLVSKLTVDKSRWQQGNVFSCSVMHEALHNRFTQKSLSLSPG
notes: as for B1
For B2, the Kd in the experiment with Human CD3 E+G HuFc-6xHis was found to be 2 nM. Also, the binding result (in experiment [1]; with EGF5+6; with EGF2+3; with EGF1+2) was “no binding (tested: 1.6 nM)” each time.

B3: DLL3#6/CD3#1 (bispecific antibody, human IgG1, kappa, lambda, L234A L235A)
chain 1: DIQLTQSPSFLSTSVGDRVTITCRASQDISNYFAWYQQKPGKAPKLLIYAASTLQSGVPSRFSGGGSGTEFTLTISSLQPEDFATYYCQQLNSYPYTFGQGTKLEIKRTVAAPSVFIFPPSDEQLKSGTASVVCLLNNFYPREAKVQWKVDNALQSGNSQESVTEQDSKDSTYSLSSTLTLSKADYEKHKVYACEVTHQGLSSPVTKSFNRGECGGGGSEGKSSGSGSESKSTEGKSSGSGSESKSTGGGGSQVQLQESGPGLVKPSETLSLTCTVSGGSISSYFWSWIRQPAGKGLEWIGRIYTSGSTNYNPSLNSRLTMSVDTSKNQFSLKLSSVTAADTAVYYCARRGDWGGFDIWGQGTVVTVSSASTKGPSVFPLAPSSKSTSGGTAALGCLVKDYFPEPVTVSWNSGALTSGVHTFPAVLQSSGLYSLSSVVTVPSSSLGTQTYICNVNHKPSNTKVDKRVEPKSCDKTHTCPPCPAPEAAGGPSVFLFPPKPKDTLMISRTPEVTCVVVDVSHEDPEVKFNWYVDGVEVHNAKTKPREEQYNSTYRVVSVLTVLHQDWLNGKEYKCKVSNKALPAPIEKTISKAKGQPREPQVYTLPPSREEMTKNQVSLWCLVKGFYPSDIAVEWESNGQPENNYKTTPPVLDSDGSFFLYSKLTVDKSRWQQGNVFSCSVMHEALHNHYTQKSLSLSPG
chain 2: EAVVTQEPSLTVSPGGTVTLTCRSSTGAVTTSNYANWVQEKPGQLPRGLIGGTNKRAPWVPARFSGSLLGGKAALTLSGAQPEDEAEYFCALWYSNLWVFGGGTKLTVLGQPKAAPSVTLFPPSSEELQANKATLVCLISDFYPGAVKVAWKADGSPVNTGVETTTPSKQSNNKYAASSYLSLTPEQWKSHRSYSCQVTHEGSTVEKTVAPAECSGGGGSEGKSSGSGSESKSTEGKSSGSGSESKSTGGGGSEVQLVESGGGLVQPGGSLKLSCAASGFTFNTYAMNWVRQAPGKGLEWVARIRSKYNNYATYYADSVKDRFTISRDDSKNTAYLQMNNLKTEDTAVYYCVRHGNFGNSYVSWFAYWGQGTLVTVSAASTKGPSVFPLAPSSKSTSGGTAALGCLVKDYFPEPVTVSWNSGALTSGVHTFPAVLQSSGLYSLSSVVTVPSSSLGTQTYICNVNHKPSNTKVDKRVEPKSCDKTHTCPPCPAPEAAGGPSVFLFPPKPKDTLMISRTPEVTCVVVDVSHEDPEVKFNWYVDGVEVHNAKTKPREEQYNSTYRVVSVLTVLHQDWLNGKEYKCKVSNKALPAPIEKTISKAKGQPREPQVYTLPPSREEMTKNQVSLSCAVKGFYPSDIAVEWESNGQPENNYKTTPPVLDSDGSFFLVSKLTVDKSRWQQGNVFSCSVMHEALHNRFTQKSLSLSPG
notes: as for B1
On to B3, for which binding in the experiment with Human CD3 E+G HuFc-6xHis was characterised by a dissociation constant (Kd) of 2 nM. The binding result (in experiment [1]; in the experiment with EGF5+6; in the experiment with EGF2+3; in the experiment with EGF3+4; with EGF1+2; with EGF4+5) was “no binding (tested: 1.6 nM)” in each case.
